Experimental findings from paper PMC8139980, “Qki activates Srebp2-mediated cholesterol biosynthesis for maintenance of eye lens transparency” are described below.

Data set [1] concerns the target T1, Qki-5 full-length (UniProt Q9QYS9 1-341).
T1 sequence: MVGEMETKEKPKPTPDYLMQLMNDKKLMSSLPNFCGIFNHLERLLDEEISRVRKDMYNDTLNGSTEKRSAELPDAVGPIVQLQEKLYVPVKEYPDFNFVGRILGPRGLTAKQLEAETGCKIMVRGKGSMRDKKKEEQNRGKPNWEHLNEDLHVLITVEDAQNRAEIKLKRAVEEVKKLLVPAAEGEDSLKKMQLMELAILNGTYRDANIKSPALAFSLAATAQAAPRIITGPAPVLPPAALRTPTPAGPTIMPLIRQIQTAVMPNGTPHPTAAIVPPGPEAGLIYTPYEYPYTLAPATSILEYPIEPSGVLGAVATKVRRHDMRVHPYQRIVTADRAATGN
Briefly: MST; Kd only in figure; MST: 20 nM Atto488-protein, PBS with Tween-20 (0.1% in 2x protein stock), 25 C; ITC: 50 mM Tris pH 7.5, 150 mM NaCl, 20 C. Conditions: protein: recombinant; tags: N-terminal Trx-His6 (PreScission site); Atto488-NHS labeled for MST; chain copies: 2.

Data set [2] has as its target T1, Qki-5 full-length. Nature of the data set: MST; MST: 20 nM Atto488-protein, PBS with Tween-20 (0.1% in 2x protein stock), 25 C; ITC: 50 mM Tris pH 7.5, 150 mM NaCl, 20 C. Conditions: protein: recombinant; tags: N-terminal Trx-His6 (PreScission site); Atto488-NHS labeled for MST; chain copies: 2.
In data set [3] the target is T2, Qki-5 STAR domain (UniProt Q9QYS9 7-214).
T2 sequence: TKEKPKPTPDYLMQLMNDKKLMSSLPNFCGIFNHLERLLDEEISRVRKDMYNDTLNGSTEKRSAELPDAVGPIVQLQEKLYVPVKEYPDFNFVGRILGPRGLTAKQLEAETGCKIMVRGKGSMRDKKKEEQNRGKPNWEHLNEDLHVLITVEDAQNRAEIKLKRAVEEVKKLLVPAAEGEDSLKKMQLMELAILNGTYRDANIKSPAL
Briefly: ITC; text says KH domain of Qki; assayed construct is STAR; MST: 20 nM Atto488-protein, PBS with Tween-20 (0.1% in 2x protein stock), 25 C; ITC: 50 mM Tris pH 7.5, 150 mM NaCl, 20 C. Particulars: protein: recombinant; tags: N-terminal Trx-His6 (PreScission site); chain copies: 2.

The target in data set [4] is T1, Qki-5 full-length. Briefly: ITC; Kd only in figure; MST: 20 nM Atto488-protein, PBS with Tween-20 (0.1% in 2x protein stock), 25 C; ITC: 50 mM Tris pH 7.5, 150 mM NaCl, 20 C. Conditions: protein: recombinant; tags: N-terminal Trx-His6 (PreScission site); Atto488-NHS labeled for MST; chain copies: 2.
For data set [5], the target named is T2, Qki-5 STAR domain. The data set is described as above. Particulars: protein: recombinant; tags: N-terminal Trx-His6 (PreScission site); chain copies: 2.

On to CAGATAACGCG (ssDNA) [QDE5], for which the binding result with Qki-5 full-length [1] is “binds”.

As a reminder, the Kd is the constant that tells how readily two partners part at equilibrium. Turning to CCAGTAACCAG (ssDNA) [QDE1], the Kd in the data set with Qki-5 full-length [2] was 2.01 µM; with Qki-5 STAR domain [3], 11.9 µM.

For the molecule CCTGTAACTGG (ssDNA) [QDE3], the binding result with Qki-5 full-length [1] was “binds”.

Regarding CUUCUUAAUAUAACUGCCUUAAACUUUAAU (ssRNA) [QRE1], the binding result with Qki-5 full-length [1] is reported as “binds”.

Take UUCACUAACAA (ssRNA) [QRE2]: the binding result in the data set with Qki-5 full-length [4] and with Qki-5 STAR domain [5] was “binds” each time.

Regarding CTTACGCTAAG (ssDNA) [QDE2], the binding result in the data set with Qki-5 full-length [1] is “binds”.

As for GGGGTAAGGGG (ssDNA) [QDE4], the Kd with Qki-5 full-length [2] amounted to 81 µM.

On to CAGAGCGCGCG (ssDNA) [QDE5-m], for which the Kd with Qki-5 full-length [2] was determined as 83 µM.
